Results as given in US20200079844A1 (Ablynx, published 2020).
Numbering of substitutions follows the chain as printed. Read-outs that look alike come from different tables or passages of the source.

What was measured:
human serum albumin = biological target: T1, human serum albumin (human, UniProt P02768 25-609)
T1 construct: On the Biacore chip; also called human albumin

rhesus serum albumin = biological target: T2, rhesus serum albumin (rhesus, UniProt Q28522 17-600)
T2 construct: On the Biacore chip; also called rhesus albumin

mouse serum albumin = biological target: T3, mouse serum albumin (mouse, UniProt P07724 25-608)
T3 construct: On the Biacore chip; also called mouse albumin

human TNFα [1] = biological target: T4, human TNFα (human, UniProt P01375 77-233); assay: cell-based or functional assay
human TNFα [2] = biological target: T4, human TNFα; assay: cell-based or functional assay; remark: listed apart in the source
human TNFα [3] = biological target: T4, human TNFα; assay: cell-based or functional assay; remark: listed apart in the source
rhesus TNFα = rhesus TNFα (rhesus, UniProt P48094 77-233); assay: cell-based or functional assay
human TNFα [4] = biological target: T4, human TNFα; assay: cell-based or functional assay; remark: listed apart in the source
human TNFα [5] = biological target: T4, human TNFα; assay: competition ELISA, biotinylated human TNFα pre-incubated with nanobody, binding to coated Enbrel; 50% inhibition
human TNFα [6] = biological target: T4, human TNFα
human TNFα [7] = biological target: T4, human TNFα; remark: listed apart in the source
human TNFα [8] = biological target: T4, human TNFα; remark: listed apart in the source
human TNFα [9] = biological target: T4, human TNFα; assay: ELISA on biotinylated human TNFα captured on neutravidin (as Example 10); untreated reference and mildly treated samples

T3 sequence (P07724 25-608 limits assumed): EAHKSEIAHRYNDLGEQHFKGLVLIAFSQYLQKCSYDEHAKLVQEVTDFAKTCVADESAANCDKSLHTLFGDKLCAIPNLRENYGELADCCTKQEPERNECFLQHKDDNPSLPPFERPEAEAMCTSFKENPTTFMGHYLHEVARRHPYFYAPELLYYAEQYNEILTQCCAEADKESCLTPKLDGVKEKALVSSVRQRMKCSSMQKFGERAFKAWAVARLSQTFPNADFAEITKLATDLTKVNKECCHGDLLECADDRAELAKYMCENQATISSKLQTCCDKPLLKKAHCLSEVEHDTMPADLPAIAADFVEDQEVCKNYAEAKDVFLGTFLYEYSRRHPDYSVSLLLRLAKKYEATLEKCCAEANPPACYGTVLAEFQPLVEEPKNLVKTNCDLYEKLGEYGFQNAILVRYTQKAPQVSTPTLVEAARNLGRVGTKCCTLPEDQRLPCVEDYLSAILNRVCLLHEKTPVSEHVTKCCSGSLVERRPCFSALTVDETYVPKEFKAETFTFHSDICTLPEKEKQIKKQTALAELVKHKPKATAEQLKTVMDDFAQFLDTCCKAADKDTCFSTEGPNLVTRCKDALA
T2 sequence (Q28522 17-600 limits assumed): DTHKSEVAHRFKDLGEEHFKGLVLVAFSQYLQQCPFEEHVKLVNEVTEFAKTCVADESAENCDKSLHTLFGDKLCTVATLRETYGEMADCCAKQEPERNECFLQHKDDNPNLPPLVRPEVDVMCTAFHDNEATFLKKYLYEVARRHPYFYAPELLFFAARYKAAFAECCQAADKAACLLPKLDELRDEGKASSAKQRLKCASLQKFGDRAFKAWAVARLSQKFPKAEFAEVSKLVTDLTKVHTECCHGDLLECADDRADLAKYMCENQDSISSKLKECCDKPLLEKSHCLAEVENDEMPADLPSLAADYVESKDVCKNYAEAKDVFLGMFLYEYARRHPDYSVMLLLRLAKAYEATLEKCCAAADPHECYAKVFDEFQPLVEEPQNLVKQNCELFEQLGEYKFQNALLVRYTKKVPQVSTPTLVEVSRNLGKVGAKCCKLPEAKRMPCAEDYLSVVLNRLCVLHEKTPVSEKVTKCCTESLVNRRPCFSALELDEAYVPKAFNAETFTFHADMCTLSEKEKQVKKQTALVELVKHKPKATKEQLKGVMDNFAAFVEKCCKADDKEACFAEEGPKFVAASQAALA
T4 sequence (P01375 77-233 limits assumed): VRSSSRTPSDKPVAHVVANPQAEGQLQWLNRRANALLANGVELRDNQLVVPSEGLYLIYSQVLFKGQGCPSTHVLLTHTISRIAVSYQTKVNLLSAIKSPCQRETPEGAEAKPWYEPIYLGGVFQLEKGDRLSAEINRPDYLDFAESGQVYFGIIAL
Chain of rhesus TNFα (P48094 77-233 limits assumed): as the sequence (P01375 77-233 limits assumed) above, with R44T, T72N, R138L counted along it

B1: PMP6 G7 (VHH)
VHH: QVQLVESGGGLVQPGGSLRLSCAASGFTFSNYWMYWVRVAPGKGLERISRDISTGGGYSYYADSVKGRFTISRDNAKNTLYLQMNSLKPEDTALYYCAKDREAQVDTLDFDYRGQGTQVTVSS
notes: serum albumin nanobody, class D
B1: binds (human serum albumin); binds (rhesus serum albumin).

B2: PMP6C1 (VHH)
VHH: AVQLVDSGGGLVQPGGSLRLSCAASGFSFGSFGMSWVRQYPGKEPEWVSSINGRGDDTRYADSVKGRFSISRDNAKNTLYLQMNSLKPEDTAEYYCTIGRSVSRSRTQGTQVTVSS
notes: Class B serum albumin nanobody; tested as unpurified protein
B2: binds (human serum albumin); binds (mouse serum albumin); binds (rhesus serum albumin).

B3: TNF20 (TNF3 HUM1) (VHH)
VHH: EVQLVESGGGLVQPGGSLRLSCAASGRSLSNYYMGWFRQAPGKGRELLGNISWRGYNIYYKDSVKGRFTISRDDSKNTIYLQMNSLKPEDTAVYYCAASILPLSDDPGWNTYWGQGTQVTVSS
For B3, the “EC50 in nM (mean); L929s + Act D cytotoxicity assay, human TNFa @ 0.5 ng/ml” value (shortened to “EC50 in nM (mean) … human TNFa @ 0.5 ng/ml”) (human TNFα [1]) was 0.38 nM and the “EC50 in nM (mean) … human TNFa @ 0.5 ng/ml” value (human TNFα [2]) was 0.38 nM.

B4: TNF21 (TNF3 HUM2) (VHH)
VHH: B3 VHH with R27F, S28T, L29F
In the case of B4, the “EC50 in nM (mean) … human TNFa @ 0.5 ng/ml” value (human TNFα [1]) is reported as 0.889 nM and the “EC50 in nM (mean) … human TNFa @ 0.5 ng/ml” value (human TNFα [2]) is reported as 0.889 nM.

B5: TNF22 (TNF3 HUM3) (VHH)
VHH: B3 VHH with P88T
B5 was tested, and the “EC50 in nM (mean) … human TNFa @ 0.5 ng/ml” value (human TNFα [1]) was 0.303 nM and the “EC50 in nM (mean) … human TNFa @ 0.5 ng/ml” value (human TNFα [2]) was 0.303 nM.

B6: TNF23 (TNF3 HUM4) (VHH)
VHH: B3 VHH with Q118L
With B6 the “EC50 in nM (mean) … human TNFa @ 0.5 ng/ml” value (human TNFα [1]) was 0.3 nM and the “EC50 in nM (mean) … human TNFa @ 0.5 ng/ml” value (human TNFα [2]) was 0.3 nM.

B7: TNF33 (TNF3 HUM1) (VHH)
VHH: B3 VHH with K87R, Q118L
In the case of B7, the “EC50 in nM (mean) … human TNFa @ 0.5 ng/ml” value (human TNFα [2]) is reported as 0.3 nM.

B8: TNF2-GS30-TNF2 (TNF8) (VHH)
chain: QVQLVESGGGLVQAGGSLRLSCAASGRTFSEPSGYTYTIGWFRQAPGKEREFVARIYWSSGLTYYADSVKGRFTISRDIAKNTVDLLMNSLKPEDTAVYYCAARDGIPTSRSVGSYNYWGQGTQVTVSSGGGGSGGGGSGGGGSGGGGSGGGGSGGGGSQVQLVESGGGLVQAGGSLRLSCAASGRTFSEPSGYTYTIGWFRQAPGKEREFVARIYWSSGLTYYADSVKGRFTISRDIAKNTVDLLMNSLKPEDTAVYYCAARDGIPTSRSVGSYNYWGQGTQVTVSS
notes: Bivalent nanobody, 30 AA GlySer linker
For B8, the “EC50 in nM (mean) … human TNFa @ 0.5 ng/ml” value (human TNFα [3]) was 0.007 nM, the “EC50 in nM (mean); L929s + Act D cytotoxicity assay, rhesus TNFa @ 0.5 ng/ml” value (rhesus TNFα) was 1.03 nM and the “EC50 in nM; alphaKYM cell assay (10000 c/w), human TNFa @ 1 ng/ml” value (human TNFα [4]) was 0.013 nM. It also gave an IC50 (human TNFα [5]) of 23 ng/mL.

B9: PMP6 G8 (VHH)
VHH: AVQLVESGGGLVQPGGSLRLTCTASGFTFRSFGMSWVRQAPGKDQEWVSAISADSSTKNYADSVKGRFTISRDNAKKMLYLEMNSLKPEDTAVYYCVIGRGSPSSPGTQVTVSS
notes: serum albumin nanobody, class A
B9: binds (human serum albumin); binds (mouse serum albumin); binds (rhesus serum albumin).

B10: PMP6 A5 (VHH)
VHH: QVQLAESGGGLVQPGGSLRLTCTASGFTFGSFGMSWVRQAPGEGLEWVSAISADSSDKRYADSVKGRFTISRDNAKKMLYLEMNSLKSEDTAVYYCVIGRGSPASQGTQVTVSS
notes: as for B9
B10: binds (human serum albumin); binds (mouse serum albumin); binds (rhesus serum albumin).

B11: PMP1H2 (VHH)
VHH: QVKLEESGGGLVQPGDSLRLSCAASGRTFSDYSGYTYTVGWFRQAPGKEREFVARIYWSSGNTYYADSVKGRFTISRDIAKNTVDLLMNNLEPEDTAVYYCAARDGIPTSRSVESYNYWGQGTQVTVSS
notes: Tested as unpurified protein
B11 showed a koff (human TNFα [6]) of 0.00365 s⁻¹.

B12: TNF15 (TNF2 HUM1) (VHH)
VHH: EVQLVESGGGLVQPGGSLRLSCAASGRTFSEPSGYTYTIGWFRQAPGKGREFVARIYWSSGLTYYADSVKGRFTISRDIAKNTVDLQMNSLKPEDTAVYYCAARDGIPTSRSVGSYNYWGQGTQVTVSS
notes: Humanised TNF2, first round
For B12, the “EC50 in nM (mean) … human TNFa @ 0.5 ng/ml” value (human TNFα [1]) was 1.67 nM, the “EC50 in nM (mean) … human TNFa @ 0.5 ng/ml” value (human TNFα [2]) was 5.9 nM and the koff (human TNFα [7]) was 0.00054 s⁻¹.

B13: PMP3G2 (VHH)
VHH: B11 VHH with Q1A, K3Q, E5V
notes: Tested as unpurified protein
B13 was tested, and the koff (human TNFα [6]) was 0.0109 s⁻¹.

B14: TNF17 (TNF2 HUM3) (VHH)
VHH: B12 VHH with I79N
notes: Humanised TNF2, first round
For B14, the “EC50 in nM (mean) … human TNFa @ 0.5 ng/ml” value (human TNFα [1]) was 3.02 nM, the “EC50 in nM (mean) … human TNFa @ 0.5 ng/ml” value (human TNFα [2]) was 7.55 nM and the koff (human TNFα [7]) was 0.0011 s⁻¹.

B15: TNF31 (TNF2 HUM1) (VHH)
VHH: B12 VHH with R27F, K92R
notes: Humanised TNF2, second round; tags not restated
B15 was tested, and the “EC50 in nM (mean) … human TNFa @ 0.5 ng/ml” value (human TNFα [2]) was 2.19 nM, the koff (human TNFα [8]) was 0.00063 s⁻¹ and the “EC50 (read off the curve)” value (human TNFα [9]) was roughly 10 ng/mL.

B16: TNF32 (TNF2 HUM2) (VHH)
VHH: B12 VHH with R27F, K92R, Q124L
notes: as for B15
In the case of B16, the “EC50 in nM (mean) … human TNFa @ 0.5 ng/ml” value (human TNFα [2]) is reported as 2.51 nM, the koff (human TNFα [8]) is reported as 0.00084 s⁻¹ and the “EC50 (read off the curve)” value (human TNFα [9]) is reported as roughly 10 ng/mL.

B17: TNF18 (TNF2 HUM4) (VHH)
VHH: B12 VHH with K92R
notes: Humanised TNF2, first round
In the case of B17, the “EC50 in nM (mean) … human TNFa @ 0.5 ng/ml” value (human TNFα [1]) is reported as 1.51 nM, the “EC50 in nM (mean) … human TNFa @ 0.5 ng/ml” value (human TNFα [2]) is reported as 3.13 nM and the koff (human TNFα [7]) is reported as 0.0007 s⁻¹.

B18: TNF16 (TNF2 HUM2) (VHH)
VHH: B12 VHH with R27F
notes: Humanised TNF2, first round
With B18 the “EC50 in nM (mean) … human TNFa @ 0.5 ng/ml” value (human TNFα [1]) was 1.9 nM, the “EC50 in nM (mean) … human TNFa @ 0.5 ng/ml” value (human TNFα [2]) was 2.42 nM and the koff (human TNFα [7]) was 0.00066 s⁻¹.

B19: TNF19 (TNF2 HUM5) (VHH)
VHH: B12 VHH with Q124L
notes: Humanised TNF2, first round
In the case of B19, the “EC50 in nM (mean) … human TNFa @ 0.5 ng/ml” value (human TNFα [1]) is reported as 2.19 nM, the “EC50 in nM (mean) … human TNFa @ 0.5 ng/ml” value (human TNFα [2]) is reported as 7.37 nM and the koff (human TNFα [7]) is reported as 0.00079 s⁻¹.

B20: TNF2-GS9-TNF2 (TNF5) (VHH)
chain: QVQLVESGGGLVQAGGSLRLSCAASGRTFSEPSGYTYTIGWFRQAPGKEREFVARIYWSSGLTYYADSVKGRFTISRDIAKNTVDLLMNSLKPEDTAVYYCAARDGIPTSRSVGSYNYWGQGTQVTVSSGGGGSGGGSQVQLVESGGGLVQAGGSLRLSCAASGRTFSEPSGYTYTIGWFRQAPGKEREFVARIYWSSGLTYYADSVKGRFTISRDIAKNTVDLLMNSLKPEDTAVYYCAARDGIPTSRSVGSYNYWGQGTQVTVSS
notes: Bivalent nanobody, 9 AA GlySer linker
With B20 the “EC50 in nM (mean) … human TNFa @ 0.5 ng/ml” value (human TNFα [3]) was 0.02 nM, the “EC50 in nM (mean); L929s + Act D cytotoxicity assay, rhesus TNFa @ 0.5 ng/ml” value (rhesus TNFα) was 35 nM and the “EC50 in nM; alphaKYM cell assay (10000 c/w), human TNFa @ 1 ng/ml” value (human TNFα [4]) was 0.008 nM. The IC50 (human TNFα [5]) was 6.3 ng/mL.

B21: PMP1G11 (VHH)
VHH: QVQLQESGGGMVQPGGSLRLSCAASGFDFGVSWMYWVRQAPGKGLEWVSEINTNGLITKYPDSVKGRFTISRDNAKTTLYLQMNSLKPEDTALYYCARSPSGSFRGQGTQVTVSS
notes: Tested as unpurified protein
B21 showed a koff (human TNFα [6]) of 0.00115 s⁻¹.

B22: PMP1H6 (VHH)
VHH: B21 VHH with Q1E, Q5V, M11L, A24T, G30S, P61V, T77N, N84D, K87I
notes: Tested as unpurified protein
With B22 the koff (human TNFα [6]) was 0.00214 s⁻¹.

B23: PMP6B4 (VHH)
VHH: EVQLVESGGGLVQEGGSLRLACAASERIWDINLLGWYRQGPGNERELVATITVGDSTSYADSVKGRFTISRDYDKNTLYLQMNSLRPEDTGLYYCKIRRTWHSELWGQGTQVTVSS
notes: Class C serum albumin nanobody; tested as unpurified protein
B23: binds (human serum albumin); binds (mouse serum albumin); binds (rhesus serum albumin).
